Results taken from PMC5800367.

Legend:
[1] = molecular target: Recombinant human C5a (Homo sapiens) (UniProt P01031); test: DELFIA biochemical competition assay
[2] = molecular target: Serum purified human C5 (Homo sapiens) (UniProt P01031); test: DELFIA biochemical competition assay
[3] = molecular target: Recombinant Cynomolgus C5adesArg (Macaca fascicularis); test: SPR
[4] = molecular target: Recombinant human C5a (Homo sapiens) (UniProt P01031); test: SPR
[5] = molecular target: Serum purified Cynomolgus C5a (Macaca fascicularis); test: SPR
[6] = molecular target: Serum purified human C5a (Homo sapiens) (UniProt P01031); test: SPR
[7] = molecular target: Recombinant human C5a (Homo sapiens) (UniProt P01031); test: kinetic exclusion assay

## MEDI7814 (antibody)
[1]
  IC50: 0.3 nM
[2]
  IC50: 0.6 nM
[3]
  Kd: 0.01 nM
  koff: 0.000144 s⁻¹
  kon: 1.51e+07 M⁻¹ s⁻¹
[4]
  Kd: 0.014 nM
  koff: 0.000251 s⁻¹
  kon: 1.74e+07 M⁻¹ s⁻¹
[5]
  koff: 0.000154 s⁻¹
  kon: 8.08e+06 M⁻¹ s⁻¹
[6]
  Kd: 0.008 nM
  koff: 0.000165 s⁻¹
  kon: 2.18e+07 M⁻¹ s⁻¹
[7]
  Kd: 0.004 nM
